Test results taken from article PMC9649601, “The E262K mutation in Lamin A links nuclear proteostasis imbalance to laminopathy‐associated premature aging” (Aging Cell, 2022).
Changes are numbered by the printed parent chain. Names may count otherwise.

B1: second rod domain of lamin A E262K (LMNA^E262K-rod2, residues 226-387) (domain or fragment, human, UniProt P02545 226-387, looked up)
chain: LVEIDNGKQREFESRLADALQELRAQHEDQVEQYKKKLEKTYSAKLDNARQSAERNSNLVGAAHEELQQSRIRIDSLSAQLSQLQKQLAAKEAKLRDLEDSLARERDTSRRLLAEKEREMAEMRARMQQQLDEYQELLDIKLALDMEIHAYRKLLEGEEERL
notes: lamin A (LMNA), human, second rod domain, residues 226-387, with the patient's variant p.Glu262Lys; source: bacterially expressed recombinant, purified
B2: second rod domain of lamin A (LMNA-rod2, residues 226-387) (domain or fragment, human, UniProt P02545 226-387, looked up)
chain: B1 chain with K37E
notes: lamin A (LMNA), human, second rod domain, residues 226-387; source: bacterially expressed recombinant, purified

Target: the molecule itself
Assay: dynamic light scattering + other: atomic force microscopy; purified proteins at 0.1 and 10 uM in aqueous environment; ex situ AFM at 10 uM; self-association (oligomers or aggregates)

Protein | binding result
B1 | binds
B2 | binds
